Laboratory results published in patent EP4786489A1, “IL-22 MUTANT, PREPARATION METHOD THEREFOR, AND USE THEREOF” (Nanjing Novoacine Biotechnology Co., Ltd., priority 2023, dated 2025).

Experiments:
Reg3β = test: Mouse PD: plasma Reg3β after single administration (ELISA); type: in vivo; set-up: Reg3βCmax: unit not given here; details: for Reg3βCmax: mouse plasma, wt IL-22 i.p.
Method: The ELISA method was used to determine the baseline levels and post-dose changes of the biomarker Reg3β in plasma samples before and after administration of different test candidates.
For the preferable test candidates, one mouse per dose group was subcutaneously injected at 0.5, 1, or 3 mg/kg. The control molecules were IL-22-Fc, administered subcutaneously at 0.3 and 1 mg/kg, and wt IL-22, administered intraperitoneally at the corresponding doses.
Approximately 40 µL of orbital blood was collected with anticoagulation on the day before dosing and at 4, 24, 48, 96, 144, 192, 264, 336, and 408 hours after dosing, followed by plasma separation. ELISA plates were coated overnight at 4°C with 1 µg/mL anti-Reg3β (Sino Biological, 51153-R065) dissolved in PBS. Mouse Reg3β (Sino Biological, 51153-M08H) was serially diluted to generate a positive control standard curve. Plasma samples were appropriately diluted to fall within the linear range of the standard curve. After blocking, samples were added and incubated for 2 hours. Incubation was then performed with the secondary antibody sheep anti-mouse Reg3β (R&D Systems, AF5110-SP) and HRP-conjugated antibody (HRP-Rabbit anti-sheep IgG H&L, Abcam, Ab97130). After final washing, tetramethylbenzidine peroxidase substrate (TMB, Surmodics, TMBS-1000-01) was added for color development for 10 minutes. The reaction was terminated with 2 M sulfuric acid, and absorbance was read at 450 nm with 630 nm as reference using a microplate reader. The original concentrations of Reg3β in each sample were calculated. Concentration versus time curves were plotted (Figure 9).

[1] = Mouse PK, plasma concentration by ELISA; type: in vivo; details: single s.c. 1 mg/kg, male Balb/C mice
Method: Male Balb/C mice (n = 4 per group) were administered a single subcutaneous injection at a dose of 1 mg/kg. Blood samples were collected before dosing and at 4 (no samples were collected at this time point for 60k-PEG-IL22-D109C and 60k-PEG-IL22-P120C), 8, 24, […], 48, 72, 96, and 120 hours after dosing. Anticoagulated blood was used to prepare plasma.
The concentrations of each test candidate in plasma were quantified by ELISA. Anti-IL22 Antibody (Sino Biological, 13059-MM24), diluted in PBS to 2 µg/mL, was used for coating. Standard curves of each test candidate and plasma samples were diluted to fall within the linear range of detection. Recombinant Anti-IL22 Antibody (Sino Biological, 13059-R034-H) was used for detection. The original concentration of each test candidate in the samples was calculated using a four-parameter fit of the standard curve for each test candidate. Pharmacokinetic parameters of each test candidate in mouse plasma were analyzed (Figure 12). Table 13. Dosing information for the mouse PK study

STAT3 = STAT3 phosphorylation in HaCaT cells by FACS (tissue activation preference); type: cell-based, Human; details: STAT3 activation in HT29 vs HaCaT cells
Method: Human immortalized keratinocyte HaCaT cells were recovered and cultured in MEM/EBSS medium (Cytiva, SH30024.01) supplemented with 15% FBS and 1% P/S (Cytiva, SV30010). When cell confluence reached 70%-80%, cells were digested with 0.25% Trypsin-EDTA (Gibco, 25200-056), terminated with complete medium, and resuspended to […]. After mixed thoroughly, a total of 120 µL per well cells was seeded into a 96-well plate (Corning, 3599) at a density of 1.5 × 10^5 cells per well and incubated overnight at 37°C with 5% CO2.
wt IL-22 was prepared at an initial working concentration of 1000 nM, and the remaining samples were prepared at 10000 nM as the starting concentration. […] After staining at room temperature in the dark for 1 hour, cells were washed twice with 1× PBS and analyzed by flow cytometry to determine the mean fluorescence intensity (MFI).
Tissue activation preference of different test candidates was evaluated by comparing their ability to activate STAT3 in intestinal-derived HT29 cells and skin-derived HaCaT cells. […] The activity of PEGylated IL-22 mutants in activating STAT3 phosphorylation in HaCaT cells at different concentrations as determined by FACS is shown in Figure 8. […] Tissue preference of PEG-IL22 mutants for STAT3 phosphorylation in human intestinal and human skin cell lines determined by FACS

SAA = test: Mouse PD preference study: plasma SAA; type: in vivo, mice; details: at equivalent or superior Reg3β Cmax: 60K-PEG-IL22-D109C 0.1 mg/kg vs 60K-PEG-IL22-P120C 0.3 mg/kg vs IL-22-Fc 1 mg/kg, s.c.
Method: Based on the in vitro preference results and preliminary PD screening results, the molecules 60k-PEG-IL22-D109C and 60k-PEG-IL22-P120C were selected. PD testing was performed in three mice per dose group at different dose levels according to the method described in Example 14, including the pharmacodynamic-related molecule Reg3β and the inflammation-related molecule SAA. The control was IL-22-Fc. Blood samples were collected before dosing and at 4, 24, 48, 72, 96, 144, 192, 264, and 336 hours after dosing. Plasma was separated using anticoagulated blood samples. For the control molecules wt IL-22 and hB3-his, samples were collected only up to 96 hours.
The detection method for SAA was as follows: a kit containing detecting antibody pairs and positive controls (Abcam, Ab216059) was used to detect SAA concentrations in appropriately diluted plasma samples. The assay was performed according to the manufacturer's instructions. Sa-HRP (Pierce 21126) was used for conjugation. After washing, tetramethylbenzidine peroxidase substrate (TMB, Surmodics, TMBS-1000-01) was added for color development for 10 minutes. The reaction was terminated with 2 M sulfuric acid, and the plate was read at 450 nm with 630 nm as the reference using a microplate reader. SAA was measured before dosing and at 24, 48, 72, 96, and 144 hours after dosing. The original SAA concentration in each sample was calculated. […]

B1: 60K-PEG-IL22-D109C: IL-22 cysteine mutant, conjugation site 76, PEG-maleimide 60kD (conjugate)
chain: APISSHCRLDKSNFQQPYITNRTFMLAKEASLADNNTDVRLIGEKLFHGVSMSERCYLMKQVLNFTLEEVLFPQSCRFQPYMQEVVPFLARLSNRLSTCHIEGDDLHIQRNVQKLKDTVKKLGESGEIKAIGELDLLFMSLRNACI
In the case of B1, the “Normalized Cmax ratio of Reg3β (relative to IL-22-Fc)” value (Reg3β; 0.5mg/kg single dose vs IL-22-Fc 0.3 mg/kg) is reported as 329%, the Reg3βCmax (Reg3β; 0.5mg/kg single dose, test candidates s.c., one mouse per dose group) is reported as 52.0 and the “Normalized Cmax ratio of Reg3β (relative to IL-22-Fc)” value (Reg3β; 1mg/kg single dose) is reported as 251%. For the same molecule, the Reg3βCmax (Reg3β; 1mg/kg single dose, s.c.) was 82.9, the Reg3βCmax (Reg3β; 3mg/kg single dose, s.c.) was 73.4 and the “peak concentrations of Reg3β stimulation compared with IL-22-Fc” value (Reg3β; similar (0.5 mg/kg vs. 0.3 mg/kg) or identical (1 mg/kg) doses) was “higher peak concentrations”. For the same molecule, the “AUClast” value [1] was 301.5835 µg·h/mL, the “Cmax” value [1] was 5460.625 ng/mL and the “MRT” value [1] was 41.39 h. For the same molecule, the “T1/2” value [1] was 21.6 h, the “tissue preference compared with IL-22-Fc” value (STAT3) was “superior tissue preference” and the “SAA Cmax compared with IL-22-Fc” value (SAA) was “significantly lower”.
